Assay results: doi:10.1101/2025.08.03.668247, “The structure of Egalitarian in complex with the K10 mRNA localization signal reveals a modular binding surface required for function”

Tests used:
Conditions in all cases: protein: recombinant; tags: N-terminal GST; label: 5'-6-FAM; hairpin with two bulges
K659E/K754E/R788E = molecular target: T1, K659E/K754E/R788E (Drosophila melanogaster, UniProt Q9W1K4 512-819, K659E;K754E;R788E); assay: fluorescence anisotropy; binding not detected; FA: 20 mM HEPES-NaOH pH 7.5, 100 mM NaCl, 10% glycerol, 20 C, 10 nM FAM-RNA; competition: 150 nM Egl512-819 + 10 nM FAM-K10 TLS, same buffer
T1 sequence: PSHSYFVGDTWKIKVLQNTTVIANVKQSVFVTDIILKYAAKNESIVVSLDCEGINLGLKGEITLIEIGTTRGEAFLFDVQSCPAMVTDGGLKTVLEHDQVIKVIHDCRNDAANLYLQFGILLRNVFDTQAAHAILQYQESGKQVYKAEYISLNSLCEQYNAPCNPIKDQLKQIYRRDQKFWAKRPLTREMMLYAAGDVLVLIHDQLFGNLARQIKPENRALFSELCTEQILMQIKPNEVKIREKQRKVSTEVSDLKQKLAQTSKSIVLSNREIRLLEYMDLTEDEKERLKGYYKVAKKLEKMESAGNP

Egl1-819 = molecular target: T2, Egl1-819 (Drosophila melanogaster, UniProt Q9W1K4 1-819); assay: fluorescence anisotropy; FA: 20 mM HEPES-NaOH pH 7.5, 100 mM NaCl, 10% glycerol, 20 C, 10 nM FAM-RNA; competition: 150 nM Egl512-819 + 10 nM FAM-K10 TLS, same buffer
T2 sequence: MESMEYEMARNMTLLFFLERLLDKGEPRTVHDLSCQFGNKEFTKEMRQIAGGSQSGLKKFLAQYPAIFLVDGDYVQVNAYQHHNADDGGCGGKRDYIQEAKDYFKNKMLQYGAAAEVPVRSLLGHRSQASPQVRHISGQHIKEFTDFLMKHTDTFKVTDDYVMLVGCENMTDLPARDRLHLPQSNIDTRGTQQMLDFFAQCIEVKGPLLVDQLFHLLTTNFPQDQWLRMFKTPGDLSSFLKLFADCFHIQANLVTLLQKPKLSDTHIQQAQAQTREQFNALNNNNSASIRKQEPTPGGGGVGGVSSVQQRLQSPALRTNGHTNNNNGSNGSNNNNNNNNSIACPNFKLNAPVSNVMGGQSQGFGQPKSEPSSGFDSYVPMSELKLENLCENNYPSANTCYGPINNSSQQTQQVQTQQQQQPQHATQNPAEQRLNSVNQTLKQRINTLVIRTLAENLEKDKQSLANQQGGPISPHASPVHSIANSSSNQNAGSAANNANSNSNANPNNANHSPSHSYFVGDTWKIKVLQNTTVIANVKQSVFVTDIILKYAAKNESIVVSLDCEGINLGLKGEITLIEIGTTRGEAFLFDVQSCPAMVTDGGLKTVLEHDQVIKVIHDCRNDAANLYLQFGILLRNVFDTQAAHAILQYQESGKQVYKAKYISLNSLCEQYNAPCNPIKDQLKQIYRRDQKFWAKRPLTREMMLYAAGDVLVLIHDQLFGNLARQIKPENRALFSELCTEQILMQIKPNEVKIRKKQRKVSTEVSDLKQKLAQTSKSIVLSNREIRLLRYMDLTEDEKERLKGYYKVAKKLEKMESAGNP

Y685A = molecular target: T3, Y685A (Drosophila melanogaster, UniProt Q9W1K4 512-819, Y685A); assay: as above
T3 sequence: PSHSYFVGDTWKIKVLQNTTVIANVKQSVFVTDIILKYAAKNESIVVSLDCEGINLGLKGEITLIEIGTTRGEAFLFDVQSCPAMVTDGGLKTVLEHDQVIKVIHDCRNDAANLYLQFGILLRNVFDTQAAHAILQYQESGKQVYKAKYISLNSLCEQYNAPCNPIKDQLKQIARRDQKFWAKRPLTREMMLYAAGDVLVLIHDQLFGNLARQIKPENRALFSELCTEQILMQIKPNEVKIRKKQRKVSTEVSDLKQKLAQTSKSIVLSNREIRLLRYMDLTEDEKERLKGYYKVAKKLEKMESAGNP

K678E = molecular target: T4, K678E (Drosophila melanogaster, UniProt Q9W1K4 512-819, K678E); assay: as above
T4 sequence: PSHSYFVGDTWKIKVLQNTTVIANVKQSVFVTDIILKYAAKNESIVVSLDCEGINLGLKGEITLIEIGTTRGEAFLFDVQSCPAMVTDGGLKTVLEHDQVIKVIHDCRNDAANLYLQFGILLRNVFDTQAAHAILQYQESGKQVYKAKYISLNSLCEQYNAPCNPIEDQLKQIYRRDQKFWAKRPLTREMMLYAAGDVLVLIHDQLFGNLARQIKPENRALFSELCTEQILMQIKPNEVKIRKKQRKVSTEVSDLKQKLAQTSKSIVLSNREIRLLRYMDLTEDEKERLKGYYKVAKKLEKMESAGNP

K659E/K754E = molecular target: T5, K659E/K754E (Drosophila melanogaster, UniProt Q9W1K4 512-819, K659E;K754E); assay: as above
T5 sequence: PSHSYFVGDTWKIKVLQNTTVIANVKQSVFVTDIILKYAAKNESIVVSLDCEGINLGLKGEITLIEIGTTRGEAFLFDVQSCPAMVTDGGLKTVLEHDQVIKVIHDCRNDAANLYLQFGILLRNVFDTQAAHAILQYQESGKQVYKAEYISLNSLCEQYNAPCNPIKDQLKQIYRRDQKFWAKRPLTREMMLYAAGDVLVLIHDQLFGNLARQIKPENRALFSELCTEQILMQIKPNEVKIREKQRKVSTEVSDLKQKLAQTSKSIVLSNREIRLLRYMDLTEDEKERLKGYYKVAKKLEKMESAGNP

Question: Does CUUGAUUGUAUUUUUAAAUUAAUUCUUAAAAACUACAAAUUAAG (structured_RNA) [K10 TLS (FAM)] bind (K659E/K754E/R788E)?
Answer: no binding

Question: And the Kd (Egl1-819)?
Answer: 127 ± 7 nM

Question: What about the Kd (Y685A) of the same binder?
Answer: 221 ± 11 nM

Question: What about the Kd (K678E) of the same binder?
Answer: 195 ± 9 nM

Question: And the Kd (K659E/K754E)?
Answer: 433 ± 42 nM
